From article doi:10.1101/2021.05.18.444627 (bioRxiv, 2021) come the findings set out here.

The target in the assay is T1, UL34^(174-194) peptide, unlabelled (HSV-1, UniProt P10218 174-194, N-terminal acetyl; C-terminal amide).
T1 peptide: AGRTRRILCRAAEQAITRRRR
As to the kind of experiment: cross-linking.

As to Ac-RRSRSSAAGGTLGVVRRASRK-NH2 [UL31^(22-42) peptide (middle of the UL31 MPR)], the binding result was “binds”.

In the case of Ac-RKSLPPHARK-NH2 [UL31^(41-50) peptide (UL31 mini-MPR)], the binding result is on record as “binds”.
